Assay in all cases: split reporter
For experiment [1], the target named is T1, CLuc-EXO70H1 (A. thaliana, UniProt Q8VY27 1-636).
T1 sequence: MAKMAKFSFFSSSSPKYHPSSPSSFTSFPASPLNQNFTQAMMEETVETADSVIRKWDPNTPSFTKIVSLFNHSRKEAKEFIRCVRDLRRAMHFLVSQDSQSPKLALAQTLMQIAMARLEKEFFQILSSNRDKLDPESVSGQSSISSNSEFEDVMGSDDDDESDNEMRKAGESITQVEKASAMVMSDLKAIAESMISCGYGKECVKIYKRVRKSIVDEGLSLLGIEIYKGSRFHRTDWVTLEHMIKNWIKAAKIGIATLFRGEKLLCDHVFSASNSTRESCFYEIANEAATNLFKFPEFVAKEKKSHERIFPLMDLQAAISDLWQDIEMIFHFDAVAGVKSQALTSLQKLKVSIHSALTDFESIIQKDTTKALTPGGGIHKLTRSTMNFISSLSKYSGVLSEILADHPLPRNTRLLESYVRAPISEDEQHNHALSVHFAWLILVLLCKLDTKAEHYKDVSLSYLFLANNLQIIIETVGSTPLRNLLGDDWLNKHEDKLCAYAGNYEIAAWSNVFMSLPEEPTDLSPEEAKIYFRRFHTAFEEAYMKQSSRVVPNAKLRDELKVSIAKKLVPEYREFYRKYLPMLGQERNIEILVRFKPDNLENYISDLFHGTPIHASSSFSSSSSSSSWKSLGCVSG

In the next experiment the target is T2, CLuc-EXO70B2 (A. thaliana, UniProt Q9LMJ4 1-599).
T2 sequence: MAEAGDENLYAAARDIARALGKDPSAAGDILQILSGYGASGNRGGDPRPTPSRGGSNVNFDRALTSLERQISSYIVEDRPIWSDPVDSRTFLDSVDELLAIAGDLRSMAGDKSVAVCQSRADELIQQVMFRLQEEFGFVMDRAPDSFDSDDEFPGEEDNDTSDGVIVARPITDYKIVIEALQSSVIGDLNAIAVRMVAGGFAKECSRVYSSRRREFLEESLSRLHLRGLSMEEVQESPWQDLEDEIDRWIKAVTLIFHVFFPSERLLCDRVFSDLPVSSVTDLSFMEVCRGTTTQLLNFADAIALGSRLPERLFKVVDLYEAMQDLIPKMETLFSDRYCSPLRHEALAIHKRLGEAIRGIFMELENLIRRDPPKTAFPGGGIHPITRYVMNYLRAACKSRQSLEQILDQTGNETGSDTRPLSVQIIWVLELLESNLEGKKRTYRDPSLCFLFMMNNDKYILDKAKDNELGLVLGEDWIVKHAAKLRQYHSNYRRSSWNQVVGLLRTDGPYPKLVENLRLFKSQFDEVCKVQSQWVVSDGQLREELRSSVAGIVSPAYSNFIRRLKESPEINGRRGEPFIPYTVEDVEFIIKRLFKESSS

Experiment [2] addresses T3, CLuc-EXO70H4 (A. thaliana, UniProt Q9SF51 1-628).
T3 sequence: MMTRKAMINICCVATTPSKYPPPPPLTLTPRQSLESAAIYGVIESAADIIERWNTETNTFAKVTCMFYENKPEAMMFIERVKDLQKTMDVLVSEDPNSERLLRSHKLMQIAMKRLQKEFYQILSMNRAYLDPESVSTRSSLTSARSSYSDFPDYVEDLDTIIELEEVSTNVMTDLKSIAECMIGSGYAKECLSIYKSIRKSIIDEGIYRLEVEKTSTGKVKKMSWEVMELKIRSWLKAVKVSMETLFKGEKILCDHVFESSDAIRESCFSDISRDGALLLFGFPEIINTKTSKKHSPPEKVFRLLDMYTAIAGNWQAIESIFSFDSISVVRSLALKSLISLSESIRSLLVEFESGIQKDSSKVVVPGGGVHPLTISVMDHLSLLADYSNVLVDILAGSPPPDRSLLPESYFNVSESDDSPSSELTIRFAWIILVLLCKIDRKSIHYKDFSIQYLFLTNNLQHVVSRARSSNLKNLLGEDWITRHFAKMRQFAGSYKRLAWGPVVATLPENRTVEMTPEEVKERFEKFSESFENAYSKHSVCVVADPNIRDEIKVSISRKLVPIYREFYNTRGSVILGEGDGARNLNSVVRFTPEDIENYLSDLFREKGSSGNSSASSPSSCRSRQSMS

The target in experiment [3] is CLuc-EXO70H7 (A. thaliana). Conditions: scale: relative to the calmodulin positive control.
Experiment [4] deals with T1, CLuc-EXO70H1. This is another data set of the same source.
In the next experiment the target is T4, CLuc-EXO70H2 (A. thaliana, UniProt O80625 1-637).
T4 sequence: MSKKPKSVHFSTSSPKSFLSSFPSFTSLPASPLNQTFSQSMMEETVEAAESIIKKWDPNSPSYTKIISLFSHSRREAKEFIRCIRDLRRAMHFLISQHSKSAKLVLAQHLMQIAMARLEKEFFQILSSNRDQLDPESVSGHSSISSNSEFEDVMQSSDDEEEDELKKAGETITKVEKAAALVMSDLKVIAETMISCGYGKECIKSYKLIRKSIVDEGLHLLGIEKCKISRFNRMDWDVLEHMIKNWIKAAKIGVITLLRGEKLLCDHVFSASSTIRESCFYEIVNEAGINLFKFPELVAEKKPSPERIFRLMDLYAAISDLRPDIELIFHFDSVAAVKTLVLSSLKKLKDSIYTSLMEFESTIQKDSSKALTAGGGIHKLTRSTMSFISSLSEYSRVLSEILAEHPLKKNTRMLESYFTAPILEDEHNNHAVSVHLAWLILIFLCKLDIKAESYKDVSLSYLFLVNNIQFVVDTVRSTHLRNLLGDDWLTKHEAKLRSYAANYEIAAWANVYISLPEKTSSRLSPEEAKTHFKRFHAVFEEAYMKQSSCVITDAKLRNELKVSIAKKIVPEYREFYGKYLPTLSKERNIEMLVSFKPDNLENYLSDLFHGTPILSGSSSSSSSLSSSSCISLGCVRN

Experiment [5] has as its target T3, CLuc-EXO70H4. The source holds these as a separate data set.

Like-named read-outs stand apart in the source and are kept apart here.

The results in this text go back to publication doi:10.1101/2022.12.30.521597 (bioRxiv, 2022).

B1: MLO12-NLuc (natural protein)
chain: MAIKERSLEETPTWAVAVVCFVLLFISIMIEYFLHFIGHWFKKKHKKALSEALEKVKAELMLLGFISLLLVVLQTPVSEICIPRNIAATWHPCSNHQEIAKYGKDYIDDGRKILEDFDSNDFYSPRRNLATKGYDKCAEKGKVALVSAYGIHQLHIFIFVLAVFHVLYCIITYALGKTKMKKWKSWERETKTIEYQYANDPERFRFARDTSFGRRHLNIWSKSTFTLWITCFFRQFFGSVTKVDYLTLRHGFIMAHLPAGSAARFDFQKYIERSLEQDFTVVVGISPLIWCIAVLFILTNTHGWDSYLWLPFLPLIVILIVGAKLQMIISKLGLRIQEKGDVVKGAPVVEPGDDLFWFGRPRFILFLIHLVLFTNAFQLAFFVWSTYEFTLKNCFHHKTEDIAIRITMGVLIQVLCSYITLPLYALVTQMGTSMRPTIFNDRVANALKKWHHTAKKQTKHGHSGSNTPHSSRPTTPTHGMSPVHLLHNYNNRSLDQQTSFTASPSPPRFSDYSGQGHGHQHFFDPESQNHSYQREITDSEFSNSHHPQVDMASPVREEKEIVEHVKVDLSEFTFKK
Consider B1, for which the relative luminescence with CLuc-EXO70H1 [1] is ~0.37 relative to the calmodulin positive control.

B2: MLO2-NLuc (natural protein)
chain: MADQVKERTLEETSTWAVAVVCFVLLFISIVLEHSIHKIGTWFKKKHKQALFEALEKVKAELMLLGFISLLLTIGQTPISNICISQKVASTMHPCSAAEEAKKYGKKDAGKKDDGDGDKPGRRLLLELAESYIHRRSLATKGYDKCAEKGKVAFVSAYGIHQLHIFIFVLAVVHVVYCIVTYAFGKIKMRTWKSWEEETKTIEYQYSNDPERFRFARDTSFGRRHLNFWSKTRVTLWIVCFFRQFFGSVTKVDYLALRHGFIMAHFAPGNESRFDFRKYIQRSLEKDFKTVVEISPVIWFVAVLFLLTNSYGLRSYLWLPFIPLVVILIVGTKLEVIITKLGLRIQEKGDVVRGAPVVQPGDDLFWFGKPRFILFLIHLVLFTNAFQLAFFAWSTYEFNLNNCFHESTADVVIRLVVGAVVQILCSYVTLPLYALVTQMGSKMKPTVFNDRVATALKKWHHTAKNETKHGRHSGSNTPFSSRPTTPTHGSSPIHLLHNFNNRSVENYPSSPSPRYSGHGHHEHQFWDPESQHQEAETSTHHSLAHESSEPVLASVELPPIRTSKSLRDFSFKK
With B2, the figures for the relative luminescence with CLuc-EXO70B2, in the experiment with CLuc-EXO70H1 [1] and in the experiment with CLuc-EXO70H4 [2] were ~0.56 relative to the calmodulin positive control, ~0.39 relative to the calmodulin positive control and ~0.4 relative to the calmodulin positive control, respectively.

B3: MLO6-NLuc (natural protein)
chain: MADQVKEKTLEETSTWAVAVVCFVLLLISIVIEKLIHKIGSWFKKKNKKALYEALEKVKAELMLMGFISLLLTIGQGYISNICIPKNIAASMHPCSASEEARKYGKKDVPKEDEEENLRRKLLQLVDSLIPRRSLATKGYDKCAEKGKVAFVSAYGMHQLHIFIFVLAVCHVIYCIVTYALGKTKMRRWKKWEEETKTIEYQYSHDPERFRFARDTSFGRRHLSFWSKSTITLWIVCFFRQFFRSVTKVDYLTLRHGFIMAHLAPGSDARFDFRKYIQRSLEEDFKTIVEINPVIWFIAVLFLLTNTNGLNSYLWLPFIPFIVILIVGTKLQVIITKLGLRIQEKGDVVKGTPLVQPGDHFFWFGRPRFILFLIHLVLFTNAFQLAFFVWSTYEFGLKNCFHESRVDVIIRISIGLLVQILCSYVTLPLYALVTQMGSKMKPTVFNERVATALKSWHHTAKKNIKHGRTSESTTPFSSRPTTPTHGSSPIHLLRNAPHKRSRSVDESFANSFSPRNSDFDSWDPESQHETAETSNSNHRSRFGEEESEKKFVSSSVELPPGPGQIRTQHEISTISLRDFSFKR
Consider B3, for which the relative luminescence in experiment [3] was above 0.24; in the experiment with CLuc-EXO70H4 [2], ~0.67 relative to the calmodulin positive control; in the experiment with CLuc-EXO70H1 [4], > 0.24 relative to the calmodulin positive control; with CLuc-EXO70H2, > 0.24 relative to the calmodulin positive control; in the experiment with CLuc-EXO70H4 [5], > 0.24 relative to the calmodulin positive control.
